These results are taken from PMC7660924, “NIGT1 family proteins exhibit dual mode DNA recognition to regulate nutrient response-associated genes in Arabidopsis” (PLoS Genetics, 2020).

The target of data set [1] is T1, NIGT1.1 L25A/L39A L25A;L39A (Arabidopsis thaliana (Col-0?)) (UniProt Q9FPE8).
T1 sequence: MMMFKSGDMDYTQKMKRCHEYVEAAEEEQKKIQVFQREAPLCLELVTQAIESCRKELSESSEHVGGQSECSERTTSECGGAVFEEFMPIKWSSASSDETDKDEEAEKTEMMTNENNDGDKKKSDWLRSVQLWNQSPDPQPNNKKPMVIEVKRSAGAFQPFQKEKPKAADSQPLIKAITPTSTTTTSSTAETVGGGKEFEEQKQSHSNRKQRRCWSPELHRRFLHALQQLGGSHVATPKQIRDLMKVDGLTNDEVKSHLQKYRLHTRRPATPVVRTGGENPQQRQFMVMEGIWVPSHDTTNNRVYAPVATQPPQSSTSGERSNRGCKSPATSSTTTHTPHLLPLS
In words: EMSA. Particulars: EMSA: 15 ul reaction, 40 fmol biotin-labeled probe, 7.5-60 ng protein, 4% polyacrylamide gel; buffer, salt, pH and temperature not given (as in ref 24). (In EMSA bound probe runs differently from free probe, usually more slowly.)

For data set [2], the target named is T2, NIGT1.1 WT (Arabidopsis thaliana (Col-0?)) (UniProt Q9FPE8).
T2 sequence: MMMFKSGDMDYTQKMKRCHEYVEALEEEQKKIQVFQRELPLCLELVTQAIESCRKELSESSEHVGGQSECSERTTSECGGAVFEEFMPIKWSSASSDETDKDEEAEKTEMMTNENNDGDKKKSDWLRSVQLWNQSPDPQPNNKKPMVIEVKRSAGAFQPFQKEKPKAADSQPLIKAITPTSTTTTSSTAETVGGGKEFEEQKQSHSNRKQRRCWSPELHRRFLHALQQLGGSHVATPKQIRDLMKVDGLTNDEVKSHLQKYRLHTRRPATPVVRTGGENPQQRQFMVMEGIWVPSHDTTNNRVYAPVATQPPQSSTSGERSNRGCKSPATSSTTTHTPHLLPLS
Description: EMSA. Particulars: EMSA: 15 ul reaction, 40 fmol biotin-labeled probe, 7.5-60 ng protein, 4% polyacrylamide gel; buffer, salt, pH and temperature not given (as in ref 24).

Data set [3] concerns the molecule itself. In words: SEC-MALS; Shodex PROTEIN LW-803 column; 20 mM Tris-HCl (pH 7.5), 500 mM NaCl, 10% glycerol, room temperature; 1 mg/ml, 70 μl loaded; 0.8 ml/min. A general note: SEC sorts molecules by how far they enter the pores of the column.

For “ACACAGGAAACAGCTATGACCATGAGCTCTTTTATTTTCTGGGAAACTTAAGTGAGAATGATGAATGAAGAAGAAAGAGAGGGGGAAGAGGTTTAGAGATATAAAAGGGATTAAAAAGAATATTCTTAAGGTTTCTAATTAGAATATCCTTTTTTCTCTGTCTTTCTTTCGGGAGAATATCTTCCTTTTATTCCTTTCTTATTTATTACTTTTTCGTGGTTATCTGTGGGTGAGATTATAACACATGCCTATGTCAGTTCATAAATATCAATCACAACTC (double strand) [P2 (SPX1 promoter)]”, the binding result is “binds more weakly” in data set [1] and “binds” in data set [2]. In the same order, the values of “ACACAGGAAACAGCTATGACCATGCAACGGTTAACTATCGATTTAAATATTAATTTTCGAGGAATCCATTTTCGCCGCAAGCATCTTCCTAGTCTCTCGCTTATCACCAAAGGTTGCCGATATCCTTCCAAATGACCGCTCTACCCTTCCCTCATCTTGC (double strand) [P3-1]” are “binds more weakly” and “no binding”.

Take “AATGAATTAAGACGCGAATCGGGAAAATTCAATAAATTGTCCATTGGGGGGTGCTTTAAAGAAAGATTGAAAGATGCCGAGGTTTATACCCTTTTCCTATCAAGAATATTCCATGGAATCCAACTACTTTTGACCCATTTGCGTATTTGTTAAATCTTTTCAGAAAATCAAAAGTGGGTAAATTGTCAAACTAGTTGTAGTATTGAACTACTATTTATTGATCATGCCATCATCCATGGTCATAGCTGTTTCCTGTGT (double strand) [P1 (SPX1 promoter)]”: the binding entry is “binds more weakly” in data set [1] and “binds” in data set [2]. Consider “AATATTTAAATCGATAGTTAACCGTTGAGAATCTCCAAAGAATGCTTTTTTCATTGTCAACACTGGCTAGGAACCCTATATAAGCCATCGTGTGATTAATATTCAGACATCGCATGGTCATAGCTGTTTCCTGTGT (double strand) [P3-2]”, for which the figures for the binding result in data set [1] and in data set [2] were “binds more weakly” and “no binding”, respectively.

On to “ACACAGGAAACAGCTATGACCATGCGATGTCTGAATATTAATCACACGATGGCTTATATAGGGTTCCTAGCCAGTGTTGACAATGAAAAAAGCATTCTTTGGAGATTCTCAACGGTTAACTATCGATTTAAATATTAATTTTCGAGGAATCCATTTTCGCCGCAAGCATCTTCCTAGTCTCTCGCTTATCACCAAAGGTTGCCGATATCCTTCCAAATGACCGCTCTACCCTTCCCTCATCTTGC (double strand) [P3 (NRT2.1 promoter)]”, for which the binding entry in data set [1] was “binds more weakly”; in data set [2], “binds”.

B1: Trx-6×His-NIGT1.1^WT-6×His recombinant protein (natural protein, Arabidopsis thaliana, UniProt Q9FPE8 1-344, looked up)
chain: MMMFKSGDMDYTQKMKRCHEYVEALEEEQKKIQVFQRELPLCLELVTQAIESCRKELSESSEHVGGQSECSERTTSECGGAVFEEFMPIKWSSASSDETDKDEEAEKTEMMTNENNDGDKKKSDWLRSVQLWNQSPDPQPNNKKPMVIEVKRSAGAFQPFQKEKPKAADSQPLIKAITPTSTTTTSSTAETVGGGKEFEEQKQSHSNRKQRRCWSPELHRRFLHALQQLGGSHVATPKQIRDLMKVDGLTNDEVKSHLQKYRLHTRRPATPVVRTGGENPQQRQFMVMEGIWVPSHDTTNNRVYAPVATQPPQSSTSGERSNRGCKSPATSSTTTHTPHLLPLS
notes: NIGT1.1, Arabidopsis thaliana, At1g25550; cDNA encoding NIGT1.1^WT cloned into pET32-b(+) by NcoI and HindIII; expected mass of the recombinant protein 57.4 kDa; Plasmid pET32-NIGT1.1; also called recombinant NIGT1.1^WT; Trx-6×His-NIGT1.1-6×His; not shown: Trx, N-terminal, kept; 6×His, N-terminal, kept; 6×His, C-terminal, kept
By stoichiometry N is commonly meant the number of molecules, sites or subunits per partner or assembly. Regarding B1, in data set [3], the “stoichiometry N” value came to 2.
